T1: human CEA expressed on tumor cells (LS-174T, MKN-45, MC38-huCEA) (human, UniProt P06731 35-685)
T1 sequence (looked up): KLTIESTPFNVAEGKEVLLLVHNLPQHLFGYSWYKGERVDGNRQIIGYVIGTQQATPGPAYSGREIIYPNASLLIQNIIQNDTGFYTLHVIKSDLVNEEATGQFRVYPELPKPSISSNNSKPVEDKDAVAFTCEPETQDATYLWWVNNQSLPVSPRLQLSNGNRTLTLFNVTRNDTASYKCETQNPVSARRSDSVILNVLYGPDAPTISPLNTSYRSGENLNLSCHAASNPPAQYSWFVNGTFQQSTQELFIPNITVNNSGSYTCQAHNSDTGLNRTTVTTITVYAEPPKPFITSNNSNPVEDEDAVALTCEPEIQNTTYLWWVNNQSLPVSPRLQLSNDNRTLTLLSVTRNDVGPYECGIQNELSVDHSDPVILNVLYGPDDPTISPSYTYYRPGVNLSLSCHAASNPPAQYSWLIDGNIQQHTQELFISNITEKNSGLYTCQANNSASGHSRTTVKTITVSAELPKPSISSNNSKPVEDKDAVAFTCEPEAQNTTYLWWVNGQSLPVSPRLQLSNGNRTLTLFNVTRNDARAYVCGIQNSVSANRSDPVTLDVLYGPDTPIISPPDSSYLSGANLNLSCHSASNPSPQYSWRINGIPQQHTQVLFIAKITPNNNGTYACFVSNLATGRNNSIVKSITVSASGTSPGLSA


Legend:
[1] = target: T1, human CEA expressed on tumor cells …; assay: cell-based or functional assay
[2] = target: human MCSP expressed on tumor cells (Colo-38, WM266-4, MV-3) (human, UniProt Q6UVK1 30-2322); assay: cell-based or functional assay
Chain of human MCSP expressed on tumor cells (Colo-38, WM266-4, MV-3) (Q6UVK1 30-2322): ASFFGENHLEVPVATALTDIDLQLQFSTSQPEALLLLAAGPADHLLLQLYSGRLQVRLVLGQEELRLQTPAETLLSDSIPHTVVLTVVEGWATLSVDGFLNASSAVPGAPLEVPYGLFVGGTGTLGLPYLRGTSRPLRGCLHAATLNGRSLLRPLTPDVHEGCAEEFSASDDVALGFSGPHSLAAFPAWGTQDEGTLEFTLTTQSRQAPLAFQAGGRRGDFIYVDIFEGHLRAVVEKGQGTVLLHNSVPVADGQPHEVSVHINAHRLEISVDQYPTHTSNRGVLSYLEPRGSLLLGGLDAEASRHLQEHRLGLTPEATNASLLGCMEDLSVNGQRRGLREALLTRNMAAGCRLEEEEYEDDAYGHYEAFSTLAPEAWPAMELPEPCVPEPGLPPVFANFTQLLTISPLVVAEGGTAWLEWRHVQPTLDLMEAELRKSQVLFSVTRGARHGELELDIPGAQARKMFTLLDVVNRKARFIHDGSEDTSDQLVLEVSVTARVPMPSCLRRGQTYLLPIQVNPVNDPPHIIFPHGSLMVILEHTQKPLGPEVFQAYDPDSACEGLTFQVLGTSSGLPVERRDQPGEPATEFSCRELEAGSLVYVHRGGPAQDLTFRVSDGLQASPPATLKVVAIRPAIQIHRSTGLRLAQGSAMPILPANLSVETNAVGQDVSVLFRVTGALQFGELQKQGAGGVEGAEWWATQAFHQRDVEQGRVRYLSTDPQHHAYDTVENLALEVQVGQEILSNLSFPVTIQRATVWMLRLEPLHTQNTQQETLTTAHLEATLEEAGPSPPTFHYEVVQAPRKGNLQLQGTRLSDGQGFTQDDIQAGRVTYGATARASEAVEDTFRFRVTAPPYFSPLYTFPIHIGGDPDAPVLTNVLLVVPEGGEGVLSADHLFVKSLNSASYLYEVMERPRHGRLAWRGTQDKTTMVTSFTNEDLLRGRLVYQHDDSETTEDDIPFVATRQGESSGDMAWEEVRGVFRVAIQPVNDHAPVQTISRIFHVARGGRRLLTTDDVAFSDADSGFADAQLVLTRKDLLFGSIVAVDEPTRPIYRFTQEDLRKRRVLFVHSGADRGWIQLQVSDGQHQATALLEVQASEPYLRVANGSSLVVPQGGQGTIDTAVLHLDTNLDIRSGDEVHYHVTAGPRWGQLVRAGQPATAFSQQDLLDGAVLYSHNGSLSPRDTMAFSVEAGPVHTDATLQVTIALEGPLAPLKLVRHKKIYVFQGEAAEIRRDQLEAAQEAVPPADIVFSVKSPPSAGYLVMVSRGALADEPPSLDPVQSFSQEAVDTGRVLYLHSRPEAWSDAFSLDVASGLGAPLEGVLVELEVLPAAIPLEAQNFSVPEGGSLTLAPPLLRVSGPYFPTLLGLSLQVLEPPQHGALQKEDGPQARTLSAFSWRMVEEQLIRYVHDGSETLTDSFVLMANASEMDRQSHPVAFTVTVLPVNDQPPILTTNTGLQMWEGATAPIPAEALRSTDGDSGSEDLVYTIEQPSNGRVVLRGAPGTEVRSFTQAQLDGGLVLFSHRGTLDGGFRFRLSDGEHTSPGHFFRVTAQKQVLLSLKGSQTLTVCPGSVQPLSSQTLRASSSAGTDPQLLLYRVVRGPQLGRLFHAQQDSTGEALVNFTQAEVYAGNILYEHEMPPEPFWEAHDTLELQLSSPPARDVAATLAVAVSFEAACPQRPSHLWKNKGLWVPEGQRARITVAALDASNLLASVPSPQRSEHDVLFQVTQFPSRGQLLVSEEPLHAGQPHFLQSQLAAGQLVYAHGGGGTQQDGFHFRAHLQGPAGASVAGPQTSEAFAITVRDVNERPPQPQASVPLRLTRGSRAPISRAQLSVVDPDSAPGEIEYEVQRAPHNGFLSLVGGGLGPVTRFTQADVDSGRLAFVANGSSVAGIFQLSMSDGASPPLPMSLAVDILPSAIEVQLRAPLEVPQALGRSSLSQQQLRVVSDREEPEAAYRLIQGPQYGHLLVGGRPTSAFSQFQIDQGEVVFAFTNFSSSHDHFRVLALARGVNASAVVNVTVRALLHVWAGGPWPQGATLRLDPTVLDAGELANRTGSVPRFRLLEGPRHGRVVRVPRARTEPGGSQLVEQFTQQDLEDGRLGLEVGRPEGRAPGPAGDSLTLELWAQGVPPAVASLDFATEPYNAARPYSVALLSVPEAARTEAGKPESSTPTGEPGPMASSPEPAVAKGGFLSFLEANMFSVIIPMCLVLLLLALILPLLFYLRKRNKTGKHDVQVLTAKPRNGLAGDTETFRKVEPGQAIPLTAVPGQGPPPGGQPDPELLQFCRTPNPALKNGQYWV

| Binder | EC50 of killing (LDH release) of MV-3 cells, human PBMCs, E:T 10:1, 27 h [2] [pM] | EC50 of killing (LDH release) of WM266-4 cells, human PBMCs, E:T 10:1, 26 h [2] [pM] | EC50 of killing (LDH release) of MV-3 cells, human PBMCs, E:T 10:1, 21 h [2] [pM] | EC50 of killing (LDH release) of WM266-4 cells, human PBMCs, E:T 10:1, 21 h [2] [pM] | also measured |
| --- | --- | --- | --- | --- | --- |
| “1+1 IgG Crossfab light chain (LC) fusion” (CH1A1A/V9) (anti-CEA/anti-huCD3) (bispecific antibody) chain 1: DIQMTQSPSSLSASVGDRVTITCRASQDIRNYLNWYQQKPGKAPKLLIYYTSRLESGVPSRFSGSGSGTDYTLTISSLQPEDFATYYCQQGNTLPWTFGQGTKVEIKSSASTKGPSVFPLAPSSKSTSGGTAALGCLVKDYFPEPVTVSWNSGALTSGVHTFPAVLQSSGLYSLSSVVTVPSSSLGTQTYICNVNHKPSNTKVDKKVEPKSC chain 2: DIQMTQSPSSLSASVGDRVTITCKASAAVGTYVAWYQQKPGKAPKLLIYSASYRKRGVPSRFSGSGSGTDFTLTISSLQPEDFATYYCHQYYTYPLFTFGQGTKLEIKRTVAAPSVFIFPPSDEQLKSGTASVVCLLNNFYPREAKVQWKVDNALQSGNSQESVTEQDSKDSTYSLSSTLTLSKADYEKHKVYACEVTHQGLSSPVTKSFNRGECGGGGSGGGGSGGGGSGGGGSEVQLVESGGGLVQPGGSLRLSCAASGYSFTGYTMNWVRQAPGKGLEWVALINPYKGVSTYNQKFKDRFTISVDKSKNTAYLQMNSLRAEDTAVYYCARSGYYGDSDWYFDVWGQGTLVTVSSASVAAPSVFIFPPSDEQLKSGTASVVCLLNNFYPREAKVQWKVDNALQSGNSQESVTEQDSKDSTYSLSSTLTLSKADYEKHKVYACEVTHQGLSSPVTKSFNRGEC chain 3: not shown chain 4: DKTHTCPPCPAPEAAGGPSVFLFPPKPKDTLMISRTPEVTCVVVDVSHEDPEVKFNWYVDGVEVHNAKTKPREEQYNSTYRVVSVLTVLHQDWLNGKEYKCKVSNKALGAPIEKTISKAKGQPREPQVCTLPPSRDELTKNQVSLSCAVKGFYPSDIAVEWESNGQPENNYKTTPPVLDSDGSFFLVSKLTVDKSRWQQGNVFSCSVMHEALHNHYTQKSLSLSPGK | – | – | – | – | EC50 of apoptosis induction (LDH release) in LS-174T cells, human PBMCs, E:T 10:1, 28 h [1]: 1.56 nM; EC50 of apoptosis induction (LDH release) in MC38-huCEA cells, human PBMCs, E:T 10:1, 24 h [1]: ~3.2 nM; EC50 of apoptosis induction (LDH release) in MKN-45 cells, human PBMCs, E:T 10:1, 28 h [1]: 213 pM |
| “2+1 IgG Crossfab”; CL/CH1 exchange (M4-3 ML2/V9) (anti-MCSP/anti-huCD3) (bispecific antibody) chain 1: DIQMTQSPSSLSASVGDRVTITCRASQDIRNYLNWYQQKPGKAPKLLIYYTSRLESGVPSRFSGSGSGTDYTLTISSLQPEDFATYYCQQGNTLPWTFGQGTKVEIKSSASTKGPSVFPLAPSSKSTSGGTAALGCLVKDYFPEPVTVSWNSGALTSGVHTFPAVLQSSGLYSLSSVVTVPSSSLGTQTYICNVNHKPSNTKVDKKVEPKSC chain 2: not shown chain 3: QVQLQESGPGLVKPSQTLSLTCTVSGGSITSGYYWNWIRQHPGKGLEWIGYITYDGSNNYNPSLKSRVTISRDTSKNQFSLKLSSVTAADTAVYYCADFDYWGQGTLVTVSSASTKGPSVFPLAPSSKSTSGGTAALGCLVKDYFPEPVTVSWNSGALTSGVHTFPAVLQSSGLYSLSSVVTVPSSSLGTQTYICNVNHKPSNTKVDKKVEPKSCDKTHTCPPCPAPEAAGGPSVFLFPPKPKDTLMISRTPEVTCVVVDVSHEDPEVKFNWYVDGVEVHNAKTKPREEQYNSTYRVVSVLTVLHQDWLNGKEYKCKVSNKALGAPIEKTISKAKGQPREPQVCTLPPSRDELTKNQVSLSCAVKGFYPSDIAVEWESNGQPENNYKTTPPVLDSDGSFFLVSKLTVDKSRWQQGNVFSCSVMHEALHNHYTQKSLSLSPGK chain 4: not shown | ~11.7 | 12.9 | – | – | – |
| “1+1 IgG Crossfab”; VL/VH exchange (LC007/V9) (anti-MCSP/anti-huCD3) (bispecific antibody) chain 1: DIVLTQSPSSLSASLGDRVTISCSASQGIRNYLNWYQQRPDGTVKLLIYYTSSLHSGVPSRFSGSGSGTDYSLTISNLEPEDIATYYCQQYSKLPWTFGGGTKLEIKRTVAAPSVFIFPPSDEQLKSGTASVVCLLNNFYPREAKVQWKVDNALQSGNSQESVTEQDSKDSTYSLSSTLTLSKADYEKHKVYACEVTHQGLSSPVTKSFNRGEC chain 2: DIQMTQSPSSLSASVGDRVTITCRASQDIRNYLNWYQQKPGKAPKLLIYYTSRLESGVPSRFSGSGSGTDYTLTISSLQPEDFATYYCQQGNTLPWTFGQGTKVEIKSSASTKGPSVFPLAPSSKSTSGGTAALGCLVKDYFPEPVTVSWNSGALTSGVHTFPAVLQSSGLYSLSSVVTVPSSSLGTQTYICNVNHKPSNTKVDKKVEPKSCGGGGSGGGGSEVQLQESGPGLVKPSQSLSLTCSVTGYSITSGYYWNWIRQFPGNKLEWMGYITYDGSNNYNPSLKNRISITRDTSKNQFFLKLNSVTTEDTATYYCADFDYWGQGTTLTVSSASTKGPSVFPLAPSSKSTSGGTAALGCLVKDYFPEPVTVSWNSGALTSGVHTFPAVLQSSGLYSLSSVVTVPSSSLGTQTYICNVNHKPSNTKVDKKVEPKSCDKTHTCPPCPAPEAAGGPSVFLFPPKPKDTLMISRTPEVTCVVVDVSHEDPEVKFNWYVDGVEVHNAKTKPREEQYNSTYRVVSVLTVLHQDWLNGKEYKCKVSNKALGAPIEKTISKAKGQPREPQVCTLPPSRDELTKNQVSLSCAVKGFYPSDIAVEWESNGQPENNYKTTPPVLDSDGSFFLVSKLTVDKSRWQQGNVFSCSVMHEALHNHYTQKSLSLSPGK chain 3: EVQLVESGGGLVQPGGSLRLSCAASGYSFTGYTMNWVRQAPGKGLEWVALINPYKGVSTYNQKFKDRFTISVDKSKNTAYLQMNSLRAEDTAVYYCARSGYYGDSDWYFDVWGQGTLVTVSSASVAAPSVFIFPPSDEQLKSGTASVVCLLNNFYPREAKVQWKVDNALQSGNSQESVTEQDSKDSTYSLSSTLTLSKADYEKHKVYACEVTHQGLSSPVTKSFNRGEC chain 4: not shown | – | – | 40.9 | 28.4 | – |
| “1+1 CrossMab”; CL/CH1 exchange (LC007/V9) (anti-MCSP/anti-huCD3) (bispecific antibody) chain 1: DIVLTQSPSSLSASLGDRVTISCSASQGIRNYLNWYQQRPDGTVKLLIYYTSSLHSGVPSRFSGSGSGTDYSLTISNLEPEDIATYYCQQYSKLPWTFGGGTKLEIKRTVAAPSVFIFPPSDEQLKSGTASVVCLLNNFYPREAKVQWKVDNALQSGNSQESVTEQDSKDSTYSLSSTLTLSKADYEKHKVYACEVTHQGLSSPVTKSFNRGEC chain 2: EVQLQESGPGLVKPSQSLSLTCSVTGYSITSGYYWNWIRQFPGNKLEWMGYITYDGSNNYNPSLKNRISITRDTSKNQFFLKLNSVTTEDTATYYCADFDYWGQGTTLTVSSASTKGPSVFPLAPSSKSTSGGTAALGCLVKDYFPEPVTVSWNSGALTSGVHTFPAVLQSSGLYSLSSVVTVPSSSLGTQTYICNVNHKPSNTKVDKKVEPKSCDKTHTCPPCPAPEAAGGPSVFLFPPKPKDTLMISRTPEVTCVVVDVSHEDPEVKFNWYVDGVEVHNAKTKPREEQYNSTYRVVSVLTVLHQDWLNGKEYKCKVSNKALGAPIEKTISKAKGQPREPQVCTLPPSRDELTKNQVSLSCAVKGFYPSDIAVEWESNGQPENNYKTTPPVLDSDGSFFLVSKLTVDKSRWQQGNVFSCSVMHEALHNHYTQKSLSLSPGK chain 3: DIQMTQSPSSLSASVGDRVTITCRASQDIRNYLNWYQQKPGKAPKLLIYYTSRLESGVPSRFSGSGSGTDYTLTISSLQPEDFATYYCQQGNTLPWTFGQGTKVEIKSSASTKGPSVFPLAPSSKSTSGGTAALGCLVKDYFPEPVTVSWNSGALTSGVHTFPAVLQSSGLYSLSSVVTVPSSSLGTQTYICNVNHKPSNTKVDKKVEPKSC chain 4: not shown | – | – | 88.4 | 53.9 | – |
| “2+1 IgG Crossfab”; VL/VH exchange (M4-3 ML2/V9) (anti-MCSP/anti-huCD3) (bispecific antibody) chain 1: EVQLVESGGGLVQPGGSLRLSCAASGYSFTGYTMNWVRQAPGKGLEWVALINPYKGVSTYNQKFKDRFTISVDKSKNTAYLQMNSLRAEDTAVYYCARSGYYGDSDWYFDVWGQGTLVTVSSASVAAPSVFIFPPSDEQLKSGTASVVCLLNNFYPREAKVQWKVDNALQSGNSQESVTEQDSKDSTYSLSSTLTLSKADYEKHKVYACEVTHQGLSSPVTKSFNRGEC chain 2: not shown chain 3: not shown chain 4: QVQLQESGPGLVKPSQTLSLTCTVSGGSITSGYYWNWIRQHPGKGLEWIGYITYDGSNNYNPSLKSRVTISRDTSKNQFSLKLSSVTAADTAVYYCADFDYWGQGTLVTVSSASTKGPSVFPLAPSSKSTSGGTAALGCLVKDYFPEPVTVSWNSGALTSGVHTFPAVLQSSGLYSLSSVVTVPSSSLGTQTYICNVNHKPSNTKVDKKVEPKSCDKTHTCPPCPAPEAAGGPSVFLFPPKPKDTLMISRTPEVTCVVVDVSHEDPEVKFNWYVDGVEVHNAKTKPREEQYNSTYRVVSVLTVLHQDWLNGKEYKCKVSNKALGAPIEKTISKAKGQPREPQVCTLPPSRDELTKNQVSLSCAVKGFYPSDIAVEWESNGQPENNYKTTPPVLDSDGSFFLVSKLTVDKSRWQQGNVFSCSVMHEALHNHYTQKSLSLSPGK | ~82.2 | 16.8 | – | – | – |

— patent publication US20250043028A1 (Hoffmann-La Roche, published 2025)
